Source: paper PMC12225019

Biological target: TRIM21 (tripartite motif-containing 21) (UniProt P19474)
Experiment: co-IP, immunoblot
Conditions: reference: HMGA2 wild type; sites S105

binding against the reference: weaker
Substance: HMGA2 (high mobility group protein A2) (from UniProt P52926) HMGA2 S105A
